Target: human FcRn (complex of His-tagged FcRn alpha chain with beta 2 microglobulin) (human) (UniProt P55899)
Experiment: SPR (Biacore), human FcRn on chip, pH 6.0

Row | fold FcRn binding (fold of Ka* relative to WT IgG1) [fold] | fold FcRn binding (fold of Ka* relative to WT) [fold] | Substance
1 | 3.4 | – | 257L IgG1 anti-VEGF antibody
2 | 3.5 | – | 257N IgG1 anti-VEGF antibody
3 | – | 17.3 | 428L/434S IgG1 anti-VEGF antibody
4 | – | 3.8 | 434S IgG1 anti-VEGF antibody

Source: patent publication US8883973B2
